Results as given in the domain aggregation screens of Martell et al. (2025).

Experiment: soluble fraction after stress (log2 fold change); higher = more stays soluble; pooled small domains, quantitative proteomics
Conditions: stress: 50 degC
Summary of the method: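 After stress at 50°C, the amount of each protein still soluble was measured. This was done on pooled custom libraries of small protein domains, using high-throughput quantitative proteomics. The figure given is a base-two log fold change and stands for aggregation propensity, with higher values meaning more protein stays in solution.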

Sequence	soluble fraction (log2)
HMGTLRPKGTVVFANLPIAADAKEGDMYNISDQFTTTASFKEGAGNVIPAGSNVYRTDDGFWDVL	0.00637
HMSASSTAPGSVTLRGAILTAWTAAGGERSKMGLPVGYEVRQADGTVTQTFEKGRISVSPTGTATI	0.0647
HMATAATGIINNNYVNVRSGPATTYNIVGRLDQGSSIEILGSKNDWYQIKTKQLNGWVKNDFINLQK	0.00222
HMAADDGSARAEQLREMYSLISGLDKLDKAIILMWLDERSYDEIAEVTGFTRNNVATRLHRIKSRLARQSN	-0.783
HMDDMVLEIGPGIGTMTQYLAEAAGKVVAVEIDRNLLPILQETLADYDNVKVIHADVLSLDLEKLVQEE	-0.000883
HMEISAIIGNNLQQLRKEQGLSLDQLALKTGVSKAVLSQLENGKANPTINTIWKIATALHVTYSALLEPP	-0.391
HMRFANGHLIWDTIIELRNAERRINRRALADLTGLKPGVVDDHVERWIEKDQLRRAGNGELEVV	-0.943
HMEVLSYYGSRGQEVVNIQTKLKQWGYYKGNIDGIFGNLTYQAVREFQRKNGLKVDGIVGPETLAALGLPT	-0.187
HMYEDNERNLYSVVINFLNEHKIKISREAINLVINRSSGDKHNLKQELNKILNYSFSNKNITYETIEKLSN	-0.585
HMAKYEVVAKDIISRIKQNEFETTLKLPTEDEMIEYYQVSRNTVRSALKLLTSQGIIFSRQGSGFYIRQRS	-0.677
HMGLRERLLNYIAYKGIDKATLERKSGLSNDAVNKMGDNTRVSTLDKISNAFPDINIAWLKTGVGEMILG	-0.113
HMRHRITEKDKQFRIGQQVWHSEYGKGMVLSVDGIGSSARLTVSFVSGKLAKIIGTFVSTEP	-1.68
HMKVSFEIEINGVTKSINSINEAKEAISELQDIMDNSTFGSEEFKNAATQIDKLQNKLVEALDK	-0.0374
HMDVLKMKVEDLNIGSRTVNSLTAAKIKTVAGLIKKSKESLLELDGMGNKGVEEIILALKKLGLEL	0.0186
HMTPVYLNARQKQILAFLKREEPAKVGDIAHALKTISINTLKKDLLYLRQKNLIESHGVLKGTIYTVK	-1.41
HMSHYDILEVDPKASATEIKQSFRKKSLQYHPDRNKSSDAHEYMTKITEAYNILGDKDKRRHYDMELKL	0.442
HMIMEVDYGTFMKMTEENAIGRVQMDSTEIIFTDKENTQVYSTGIMYDPDLTQRLYDAGAVFA	-0.986
HMGDKRPIAVGDYVKLEGQDTPGQVLSISGKNATVGFGMLKTTVKLDRLRHTMAKPQTGASAGVR	0.178
HMSSQGSLEKGYSALLDGRLDDAALAYGAALAANPMERDALLGLAYVAHSKGRREEAQALYRKVLR	0.0715
HMPQLSNEEQKIVDALEGSDGKQINLITVETNIPMARLMSVLFEMEMRGIVKSLNGARYKLN	-0.163
HMLLNTSQLKELYNRYDKKNSSLISIPFSAISDEPLKFYKWYAALFQIELNVKAFADVDSKQIIIYKGTK	-2.51
HMHAGMKSWTIQYEKSPIYGSFLMYKDGNIYIQKEDNVVVHFPLDRFSQNDQAILKSRIEKIDQINKSS	-0.0347
HMTSMYYLNKAVKEGNAKAIRQLLSAGININVRKRETSTPLDFAIKYKQTEIADLLRKHGGKTAEELKAEE	-0.343
HMRLSVVDLQDSLRGLEYPAGKGDLINHAREHNASADVIAVLEQFSERTYRSAADVGEEFGRV	0.111
HMNNQKATAVKVASGIVNLRSGPATSYETLDTVATGETLSVLAEKDGWFQVSRAGRTGWVAGWVVDVIRE	-0.0645
HMTENQKNIDLIKIVSLLVHAAKIDENYTNKEKELIINFINNFSKENKQNIKSSEILEEAEKYEK	0.0572

Sequence	soluble fraction (log2)
HMNEKFNVYPIPVYNNLNITGLSKPVTYLISSIDGKTIKNGVFQESIDVSDLKSGLYFLQVETKDPVKFIK	-0.658
HMGISGSDLEKMIRNILVNNTDVVETIKSGQDKKGKKQKFLQGLIMKEARGQTDPREAASLLAKLLE	-0.0715
HMQDTIDLVIQVNGKLRGQMNVPKDTDRATIEQLAINLENVQKIVAGNAIKKIIIVPGRLINIVVSKNL	-0.925
HMFNKTKVPNFIDMNYYEEIEGNSEYDKFNFADPITKNDDTKAPGTVIDQTPEKGTRIDEEKTVIQLTIA	-0.102
HMGEDPYQMLGLTRQASDEEVRLAWRKLMRENHPDSLASRGVPQEFVKRATEQVAQINAAWDRIKRERG	0.0386
HMTATIEEVNELTQSARVNINVPYAAKDEAKAYGAKWDDVERTWYTTGENYAQNKDFFDGFNPTAS	0.156
HMAWAVDVGVVGLFPGKAVLVIDGGAPRTVPVGANVGGVRLLAVDQGSATVEIGGKRQRLAIGQHAH	-0.402
HMNQGKLIEMLQEMKEIAHSQNNYLTKNEIANYLGDTVLSKEQLQAVYHYLGENHIEVEGYVYIP	0.035
HMNGAITLRVRPSDEGKRLDVFVVSQLTGYTRSFVAGLIGDRHFLVNGQPKKPGYRIKSSDTISGVIPAPA	-1.21
HMTSISMDEKVVLGWHQVTTGAANSGMDKVVSNTSGLNVISPTWFKLSDNKGNYISIASKDYVDAAHKKGL	-0.232
HMDSSSYSAKVGTLIQETRQARGMTQAQLAQALGTSQSAINRIEKGGQNISLDMLNRISEVLSSQIVTLNP	-0.0626
HMDSMATVPDLVGKTEDEAKALANDAHLGVQMAGEEASDQEKGKISRQETAAGTQVAEYTTVKYWVSTGTQ	0.124
HMADGKWTLTDAGYTFTYSDGRKARGTWEDIDGEWYHFDRNGIMETGWKTVGNIRYHFNQDGSL	-0.185
HMRAPETEITYTEFKTALRAGQIETATVGIEQISGKLTDGDLYRTVRVDDPDLLKDLEANHVNAAGRV	0.104
HMAAELQALSVRELEVLDQLAGGASNREIAQRLYISENTVRNHVHSILTKLKLQNRTQLVGMT	-0.239
HMASAEDDLTRRARKLLTTSSMLKTLQPDTGERLQWLPQVVRLLAEGVEAPRIVVLIRRAMESG	-1.04
HMSLSQLGLTPRQTDVLALLLKGQPNKLIARELGLSVETVKDHVAAVLRALNVSSRTQAVIAVSQMLQ	-0.905
HMASRKTERINRLIDVLQHATSRVPASVLSKILGIGERSVRNYVSEVNEQGQFRIDSSSGGYRLVA	-0.147
HMTSNEKARNAASAERRADIVAAARELYEEQGLSKTSVQDITNRMGVARSLFYHYFPDKEAVTSAVLDDYV	0.244
HMNGQFIELKNTTGTIIEARVLSFQNGKVKLQRNDGLIFVASISIFDSESIEVIKQKVAEISESKKS	-0.224
HMSKEGLASLLEDINGLGAIRRKTLIDHFGSVAKIRGARPEEIAALPGMGRKIAEHILASLRED	-0.251
HMNNIYFSPVVEENNKGLRLDKFLAASFPEFSRSQLQRLILEGNVSNDDVVIADNSQKVRVGDSFQVIVPE	-0.0377
HMNKIDVVEVDMSKPYEDMTVTELQNVILGKLASNGPVTDQMKKDVAENIYHDSLVNWAKSF	0.505
HMVDYSMEDSVWNNKKEHVNEWFDANPEHEGRRVIVDGLFAIGDAQPDLRKRHWSSISVVFADLDNSPIG	-0.356
HMSIYQYFNISEINSIDDLKKQYFKLAKKYHPDAGGDKVSFQELQNEYEQLTKKILSGAELNADELKTE	-0.109
HMSYQSYDKVVGDTFFEANLKAESKFGKGNFEIISTRRVKHPIYLGFGHKELVELTIGIHDP	-0.308

Sequence	soluble fraction (log2)
HMKKDRKKMLKEGIVLFEKILRGMELSPTSEPLKKVLTSFNIQNKEDLYVKLGAGVISSEEVIKELKKK	0.183
HMFDEDKLIISIGSKVRIIREPYFGTIGKVVELPPELVKMDTEAMLRVAIIKLDDGEKVTIPRANLEVILS	-1.22
HMSKITNALLMMKLLSNGKVYSVKELSEELGVTERMVRNYKEQLEMSGYIIESFKGPGGGYFINKN	-1.61
HMVKLDDLTGQDKASAEAAISNLGLKYSEQQEYSDEIEEGKVTRTDPGAGSTSLKAGDTVTVYISRGPE	0.21
HMLIADADSLRKQIETVLANAPNEVAAYRGGKETLMGWFVGQIMRATGGKADPKLTREILAELLQ	0.00102
HMEAALTLRVDKAGSLRSLLSDEQYAKTSKIIVSGEINTLDIKTLQEMSGEKGSLQSIDLSQANIVAY	-0.00676
HMGGEIGSGKNGYVAFYKGKKVDVKADSMYGAQKTAAKYFNAKKEYDVNVVLAEVDGKQYVQS	0.343
HMNAPKKPLSAYFLFSQEERLKVKAENPDYSITEVAKELGKRWATLNPDIKTVYEQRYQDARRIYETEMNT	-0.303
HMDASSAVQFGSLLRDARRRQGLSQAELGGDKYSGSYISHLESGRRVATPEVIEFLSRRLGVSPLEWGVS	-0.0679
HMGHEEPITFDRLPQAAQTFLKTHFDTLTVAYIVADRKFMGVEYEVKYTDRTEVDFRSDGQWESV	0.0592
HMSRSLEIDVLVKALLEQDRRKFMLVTDGTADVTVRYNNALPSLFREGQGVVAEGLMDNGKFIATNVLAK	-0.631
HMVIQRQIPPLVTRMLDGLEQFIQLDMPFDLDTRLGNIEAVRANMDRSDVTSAEAYRQVLELYSIELQ	-0.2
HMSYFIFDGVLNLGKQYELKGEESSHITKSRRLRPGDSFLIQDQEGQRFEAILKSFDRNSLIFTPHKPTA	-0.0922
HMQVQHVWNRLKRPNGDVLYEINRDHPLVSASLDAAADRGAIETLLRQIEQSLPVNQLYVDMNADEHFE	-0.301
HMLRTEYLTVNYAKASEVAELVTASGFLSSRGSITVDERTNTLLLQDTATNIDEVRFMLEQLD	-0.443
HMYAVQKGDTLKKIADQFGISVDTIKWANDMKGDALSIDQELKIP	0.057
HMKEPPTLEEIKNYFASKLSTELESEKFFNYFESNGWLVGGKTPMKNWQSAANNWLINMSKFN	-0.47
HMSIASASVKEKIRDIVSSEPPQKPFSDAKIAEILAEDGIAIARRTVAKYREEIGIPTKSLRKR	0.0195
HMTQEFIVPKVTGYTVEDAMNLSGVKDVFEITVDSTEKSDQPAGIILFQDPKDGSSRKSDLVIHVVVSAGS	-0.137
HMGGQEEALNRLVLRELLGTLEKKERDLIVRRYFYDQTQTKIAEALGISQVQVSRMEKRILKKMREGF	-0.914
HMDLTIEQTTVLGKRLFSNALNSLGKKQRNIKKDAIESLLKRMNLKDMDQLYESIGIGDKSPLLMAQILL	-0.0296
HMNVGKRLKSLREKYKFSLEEVAKKIKSSAGAISRYENNERKINSESLIRLSNLYNVSPEYILYG	0.0449
HMNFTVTDKNAVLYSNDNTKVYESPDINSKLVTTIAKDLPVNVTGITSNGWFRISLEGTYYVPGNGLEQR	0.141
HMKSVLDDVAGLGPVRKKALLKAMGGFTRLRAASLDDILAVRAVPEEVAREVFAVLAQYNSVRNNDISE	-0.273
